From patent US20230145060A1
Like-named read-outs stand apart in the source and are kept apart here.

Columns and labels:
Assay in all cases: cell-based or functional assay
[1] = molecular target: HIV-1 Env of pseudovirus ZM197 (HIV-1)
[2] = molecular target: HIV-1 Env of pseudovirus X2088 (HIV-1)
[3] = molecular target: HIV-1 Env of pseudovirus ZM106 (HIV-1)
[4] = molecular target: HIV-1 Env of pseudovirus Du422 (HIV-1)
[5] = molecular target: HIV-1 Env of pseudovirus 3817 (HIV-1)
[6] = molecular target: HIV-1 Env of pseudovirus X1632 (HIV-1)
[7] = molecular target: HIV-1 Env of pseudovirus pCNE8 (HIV-1)
[8] = molecular target: HIV-1 Env of pseudovirus T257 (HIV-1)
[9] = molecular target: HIV-1 Env of pseudovirus BG505 (HIV-1)
[10] = molecular target: HIV-1 Env of pseudovirus 278 (HIV-1)
[11] = molecular target: HIV-1 Env of pseudovirus THRO (HIV-1)
[12] = molecular target: HIV-1 Env of pseudovirus JRCSF (HIV-1) (UniProt P20871)
[13] = molecular target: HIV-1 Env of pseudovirus PV0 (HIV-1)
[14] = molecular target: HIV-1 Env of pseudovirus SF162 (HIV-1) (UniProt P19550)
[15] = molecular target: HIV-1 Env of pseudovirus ZM197 (HIV-1); remark: listed apart in the source
[16] = molecular target: HIV-1 Env of pseudovirus X2088 (HIV-1); remark: listed apart in the source
[17] = molecular target: HIV-1 Env of pseudovirus ZM106 (HIV-1); remark: listed apart in the source
[18] = molecular target: HIV-1 Env of pseudovirus Du422 (HIV-1); remark: listed apart in the source
[19] = molecular target: HIV-1 Env of pseudovirus 3817 (HIV-1); remark: listed apart in the source
[20] = molecular target: HIV-1 Env of pseudovirus X1632 (HIV-1); remark: listed apart in the source
[21] = molecular target: HIV-1 Env of pseudovirus pCNE8 (HIV-1); remark: listed apart in the source
[22] = molecular target: HIV-1 Env of pseudovirus T257 (HIV-1); remark: listed apart in the source
[23] = molecular target: HIV-1 Env of pseudovirus BG505 (HIV-1); remark: listed apart in the source
[24] = molecular target: HIV-1 Env of pseudovirus 278 (HIV-1); remark: listed apart in the source
[25] = molecular target: HIV-1 Env of pseudovirus THRO (HIV-1); remark: listed apart in the source
[26] = molecular target: HIV-1 Env of pseudovirus JRCSF (HIV-1) (UniProt P20871); remark: listed apart in the source
[27] = molecular target: HIV-1 Env of pseudovirus PV0 (HIV-1); remark: listed apart in the source
[28] = molecular target: HIV-1 Env of pseudovirus SF162 (HIV-1) (UniProt P19550); remark: listed apart in the source

Substance	IC50, neutralization of ZM197 PsV [1]	IC50, neutralization of X2088 PsV [2]	IC50, neutralization of ZM106 PsV [3]	IC50, neutralization of Du422 PsV [4]	IC50, neutralization of 3817 PsV [5]	IC50, neutralization of X1632 PsV [6]	IC50, neutralization of pCNE8 PsV [7]	IC50, neutralization of T257 PsV [8]	IC50, neutralization of BG505 PsV [9]	IC50, neutralization of 278 PsV [10]	IC50, neutralization of THRO PsV [11]	IC50, neutralization of JRCSF PsV [12]	IC50, neutralization of PV0 PsV [13]	IC50, neutralization of ZM197 PsV [15]	IC50, neutralization of X2088 PsV [16]	IC50, neutralization of ZM106 PsV [17]	IC50, neutralization of Du422 PsV [18]	IC50, neutralization of 3817 PsV [19]	IC50, neutralization of X1632 PsV [20]	IC50, neutralization of pCNE8 PsV [21]	further results
32-I multabody (PGDM1400 scFab-human apoferritin : scFc-N-Ferritin : iMab A12P scFab-C-Ferritin : 10E8v4 scFab-C-Ferritin, 4:2:1:1)	0.0044 µg/mL	3.1 µg/mL	0.0031 µg/mL	0.7 µg/mL	1.8 µg/mL	0.008 µg/mL	0.0013 µg/mL	0.0015 µg/mL	0.0026 µg/mL	0.008 µg/mL	0.033 µg/mL	0.004 µg/mL	0.12 µg/mL	0.0019 nM	1.3 nM	0.0014 nM	0.31 nM	0.79 nM	0.0034 nM	0.57 pM	IC50, neutralization of SF162 PsV [14]: 2.5 µg/mL; IC50, neutralization of T257 PsV [22]: 0.00068 nM; IC50, neutralization of BG505 PsV [23]: 0.0011 nM; IC50, neutralization of 278 PsV [24]: 0.0035 nM; IC50, neutralization of THRO PsV [25]: 0.014 nM; IC50, neutralization of JRCSF PsV [26]: 0.0017 nM; IC50, neutralization of PV0 PsV [27]: 0.052 nM; IC50, neutralization of SF162 PsV [28]: 1.1 nM
N6/PGDM1400x10E8v4 trispecific antibody	0.073 µg/mL	0.56 µg/mL	0.017 µg/mL	0.19 µg/mL	1.2 µg/mL	0.03 µg/mL	0.024 µg/mL	0.028 µg/mL	0.059 µg/mL	1.2 µg/mL	0.31 µg/mL	0.026 µg/mL	1.3 µg/mL	0.42 nM	3.2 nM	0.1 nM	1.1 nM	6.7 nM	0.17 nM	0.14 nM	IC50, neutralization of SF162 PsV [14]: 0.33 µg/mL; IC50, neutralization of T257 PsV [22]: 0.16 nM; IC50, neutralization of BG505 PsV [23]: 0.34 nM; IC50, neutralization of 278 PsV [24]: 7.1 nM; IC50, neutralization of THRO PsV [25]: 1.7 nM; IC50, neutralization of JRCSF PsV [26]: 0.15 nM; IC50, neutralization of PV0 PsV [27]: 7.2 nM; IC50, neutralization of SF162 PsV [28]: 1.9 nM
N49P7 IgG (antibody)	0.58 µg/mL	0.38 µg/mL	0.18 µg/mL	10 µg/mL	3.3 µg/mL	> 50 µg/mL	0.28 µg/mL	1.2 µg/mL	0.21 µg/mL	> 50 µg/mL	7.5 µg/mL	0.12 µg/mL	0.28 µg/mL	3.9 nM	2.5 nM	1.2 nM	66 nM	22 nM	> 100 nM	0.0018 µM	IC50, neutralization of SF162 PsV [14]: 0.15 µg/mL; IC50, neutralization of T257 PsV [22]: 8.3 nM; IC50, neutralization of BG505 PsV [23]: 1.4 nM; IC50, neutralization of 278 PsV [24]: > 100 nM; IC50, neutralization of THRO PsV [25]: 50 nM; IC50, neutralization of JRCSF PsV [26]: 0.85 nM; IC50, neutralization of PV0 PsV [27]: 1.9 nM; IC50, neutralization of SF162 PsV [28]: 1 nM
10E8v4 IgG (antibody)	0.19 µg/mL	> 50 µg/mL	> 50 µg/mL	0.55 µg/mL	3.1 µg/mL	2.02 µg/mL	0.96 µg/mL	1.5 µg/mL	1.4 µg/mL	1.8 µg/mL	0.37 µg/mL	1.8 µg/mL	6.3 µg/mL	1.3 nM	> 100 nM	> 100 nM	3.7 nM	21 nM	13 nM	0.0064 µM	IC50, neutralization of T257 PsV [22]: 9.8 nM; IC50, neutralization of BG505 PsV [23]: 9 nM; IC50, neutralization of 278 PsV [24]: 12 nM; IC50, neutralization of THRO PsV [25]: 2.5 nM; IC50, neutralization of JRCSF PsV [26]: 12 nM; IC50, neutralization of PV0 PsV [27]: 42 nM; IC50, neutralization of SF162 PsV [28]: 20 nM
PGDM1400 IgG (antibody)	0.11 µg/mL	> 50 µg/mL	0.013 µg/mL	6 µg/mL	> 50 µg/mL	0.018 µg/mL	0.0027 µg/mL	0.012 µg/mL	0.0032 µg/mL	0.16 µg/mL	0.09 µg/mL	0.0074 µg/mL	1.3 µg/mL	0.68 nM	> 100 nM	0.084 nM	40 nM	> 100 nM	0.12 nM	18 pM	IC50, neutralization of SF162 PsV [14]: > 50 µg/mL; IC50, neutralization of T257 PsV [22]: 0.08 nM; IC50, neutralization of BG505 PsV [23]: 0.02 nM; IC50, neutralization of 278 PsV [24]: 1.1 nM; IC50, neutralization of THRO PsV [25]: 0.61 nM; IC50, neutralization of JRCSF PsV [26]: 0.049 nM; IC50, neutralization of PV0 PsV [27]: 8.4 nM; IC50, neutralization of SF162 PsV [28]: > 100 nM
